System: OTUB1

UBCH5C, sequence (chain, as listed by the source): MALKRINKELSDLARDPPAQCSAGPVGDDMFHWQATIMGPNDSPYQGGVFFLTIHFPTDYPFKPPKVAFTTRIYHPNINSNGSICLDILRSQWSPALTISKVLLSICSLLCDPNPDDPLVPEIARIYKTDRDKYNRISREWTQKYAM

UBCH5C
free ubiquitin released in a real-time deubiquitinase assay (3 µM OTUB1 with or without UbcH5c, 1 nM Atto532-tagged ubiquitin, 1 nM tIVR): OTUB1 activity is upregulated by UbcH5c, and this was detected by the experiment

Reference: US20180364250
